Data set [1] deals with T1, MORC2 dephosphorylated (wild-type) (Homo sapiens) (UniProt Q9Y6X9).
T1 sequence: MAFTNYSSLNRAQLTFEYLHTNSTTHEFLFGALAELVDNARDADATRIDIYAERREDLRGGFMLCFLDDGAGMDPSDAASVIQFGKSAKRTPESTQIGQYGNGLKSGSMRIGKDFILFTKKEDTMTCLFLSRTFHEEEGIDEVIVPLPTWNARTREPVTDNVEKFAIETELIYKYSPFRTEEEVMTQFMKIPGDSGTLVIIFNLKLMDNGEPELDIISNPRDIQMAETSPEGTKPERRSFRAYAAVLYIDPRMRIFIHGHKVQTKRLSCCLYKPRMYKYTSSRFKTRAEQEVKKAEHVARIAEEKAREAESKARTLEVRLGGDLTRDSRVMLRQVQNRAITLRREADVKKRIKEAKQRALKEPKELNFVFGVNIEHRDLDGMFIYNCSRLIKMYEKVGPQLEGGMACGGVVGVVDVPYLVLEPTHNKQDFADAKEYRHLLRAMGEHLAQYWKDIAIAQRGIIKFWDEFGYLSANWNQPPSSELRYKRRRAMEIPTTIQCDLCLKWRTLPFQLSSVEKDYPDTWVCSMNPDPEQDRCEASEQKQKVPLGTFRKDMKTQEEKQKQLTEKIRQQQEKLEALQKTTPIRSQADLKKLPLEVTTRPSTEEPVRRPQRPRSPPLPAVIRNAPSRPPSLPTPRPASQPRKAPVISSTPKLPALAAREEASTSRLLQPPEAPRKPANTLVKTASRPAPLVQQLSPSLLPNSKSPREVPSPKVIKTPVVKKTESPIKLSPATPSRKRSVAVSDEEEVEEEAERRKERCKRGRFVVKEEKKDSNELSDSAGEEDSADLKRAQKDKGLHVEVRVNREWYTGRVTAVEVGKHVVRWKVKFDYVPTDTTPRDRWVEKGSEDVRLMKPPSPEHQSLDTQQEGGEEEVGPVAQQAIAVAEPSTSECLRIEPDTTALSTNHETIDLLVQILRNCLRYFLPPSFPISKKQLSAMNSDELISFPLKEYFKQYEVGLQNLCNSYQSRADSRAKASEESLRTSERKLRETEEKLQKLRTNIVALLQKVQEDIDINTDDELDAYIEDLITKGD
Description: fluorescence anisotropy. To be noted: apo; FA/EMSA: 50 mM NaCl, 3 mM MgCl2, 20 mM Na-HEPES pH 7.4, 1 mM TCEP, 10% glycerol, 0.025 mM ZnCl2, 50 ug/ml BSA, room temperature; 1 nM nucleic acid (FA) or 20 nM. In general terms: In fluorescence polarisation assays a small probe gives low polarisation when free and higher when bound to something large.

Data set [2] relates to MBP-MORC2 wild-type (Homo sapiens). Description: pull-down. To be noted: FA/EMSA: 50 mM NaCl, 3 mM MgCl2, 20 mM Na-HEPES pH 7.4, 1 mM TCEP, 10% glycerol, 0.025 mM ZnCl2, 50 ug/ml BSA, room temperature; 1 nM nucleic acid (FA) or 20 nM.
The target of data set [3] is T2, MORC2 dephosphorylated (wild-type) (Homo sapiens, UniProt Q9Y6X9 1-1032).
T2 sequence: T1 sequence
Nature of the data set: fluorescence anisotropy; apo ('5 or less'); FA/EMSA: 50 mM NaCl, 3 mM MgCl2, 20 mM Na-HEPES pH 7.4, 1 mM TCEP, 10% glycerol, 0.025 mM ZnCl2, 50 ug/ml BSA, room temperature; 1 nM nucleic acid (FA) or 20 nM DNA (EMSA). Particulars: protein: recombinant; tags: tag removed by TEV; chain copies: 2; label: 5'-6-FAM; blunt.

Data set [4] concerns the molecule itself. Description: SEC-MALS; full-length MORC2, 2 mg/ml, 150 mM NaCl, 3 mM MgCl2, 20 mM Na-HEPES pH 7.4, 0.5 mM TCEP, 1.5% glycerol, 0.025 mM ZnCl2, without AMP-PNP; Wyatt 030 column.
In data set [5] the target is T2, MORC2 dephosphorylated (wild-type). Description: fluorescence anisotropy; apo; FA/EMSA: 50 mM NaCl, 3 mM MgCl2, 20 mM Na-HEPES pH 7.4, 1 mM TCEP, 10% glycerol, 0.025 mM ZnCl2, 50 ug/ml BSA, room temperature; 1 nM nucleic acid (FA) or 20 nM DNA (EMSA). Particulars: protein: recombinant, tags: tag removed by TEV, chain copies: 2, label: 5'-6-FAM.
Data set [6] concerns the molecule itself. Nature of the data set: SEC-MALS; coiled coil 3, 1.5 mg/ml, 150 mM NaCl, 3 mM MgCl2, 20 mM Na-HEPES pH 7.4, 0.5 mM TCEP, 1.5% glycerol, 0.025 mM ZnCl2; Wyatt 010 column. In general terms: SEC sorts molecules by how far they enter the pores of the column.
The target in data set [7] is T2, MORC2 dephosphorylated (wild-type). Nature of the data set: fluorescence anisotropy; apo; Hill slope 0.6; FA/EMSA: 50 mM NaCl, 3 mM MgCl2, 20 mM Na-HEPES pH 7.4, 1 mM TCEP, 10% glycerol, 0.025 mM ZnCl2, 50 ug/ml BSA, room temperature; 1 nM nucleic acid (FA) or 20 nM DNA (EMSA). Particulars: protein: recombinant; tags: tag removed by TEV; chain copies: 2; label: 5'-6-FAM on oligo 3; four-way junction of 4 strands.

A value given as a limit tells only on which side of the number the result lay.

Regarding “ATATCGATGTATATATCTGACACGTGCCTGGAGACTAGGGAGTAATCCCCTTGGCGGTTAAAACGCGGGGGACAGCGCGTACGTGCGTTTAAGCGGTGCTAGAGCTGTCTACGACCAATTGAGCGGCCTCGGCACCGGGATTCTGATAT (double strand) [Nucleosome on 2-601-2 DNA]”, in data set [1], the Kd (usually the constant that tells how readily two partners part at equilibrium) is 16 nM.
pUC19 linear: the binding signal (fold less than circular) in data set [2] is 30.

B1: Random 65mer dsDNA (dsDNA)
DNA 1: ATTCTCCAGGGCGGCCGCGTATAGGGTCCATCAGAATTCGGATGAACTCGGTGTGAAGAAAGATC
DNA 2: GATCTTTCTTCACACCGAGTTCATCCGAATTCTGATGGACCCTATACGCGGCCGCCCTGGAGAAT
Regarding B1, in data set [3], the Kd is under 5 nM.

B2: full-length human MORC2 (dephosphorylated, wild-type) (natural protein, UniProt Q9Y6X9 1-1032, looked up)
chain: T1 sequence
notes: Cloned into vector 438-B (N-terminal His6-TEV) and into 438-C (N-terminal His6-MBP-TEV); Heterogeneous phosphorylation from insect cells was removed by phosphatase treatment; also called wild-type MORC2; full-length MORC2; not shown: His6, N-terminal, cleaved
B2: the stoichiometry N – broadly, a count of units in the complex or per binding partner – in data set [4] turned out to be 2.

B3: Random 25mer dsDNA (dsDNA)
DNA 1: TCCATCAGAATTCGGATGAACTCGG
DNA 2: CCGAGTTCATCCGAATTCTGATGGA
In the case of B3, in data set [5] (blunt), the dissociation constant (Kd) was found to be 21 ± 2 nM.

B4: MORC2 coiled coil 3 (residues 900-1032) (domain or fragment, human, UniProt Q9Y6X9 900-1032, looked up)
chain: ALSTNHETIDLLVQILRNCLRYFLPPSFPISKKQLSAMNSDELISFPLKEYFKQYEVGLQNLCNSYQSRADSRAKASEESLRTSERKLRETEEKLQKLRTNIVALLQKVQEDIDINTDDELDAYIEDLITKGD
notes: also called CC3; isolated MORC2 C-terminus; source: E. coli BL21 (DE3) RIL, purified (HisTrap, TEV cleavage, S75 SEC); not shown: His6, N-terminal, cleaved
Turning to B4, the “stoichiometry N” value in data set [6] is 2.

B5: Cruciform DNA (structured_DNA)
DNA 1: CCCTATAACCCCTGCATTGAATTCCAGTCTGATAA
DNA 2: GTAGTCGTGATAGGTGCAGGGGTTATAGGG
DNA 3: AACAGTAGCTCTTATTCGAGCTCGCGCCCTATCACGACTA
DNA 4: TTTATCAGACTGGAATTCAAGCGCGAGCTCGAATAAGAGCTACTGT
With B5, the Kd in data set [7] is 78 ± 12 nM.

B6: 149 bp Widom 601 dsDNA (2-601-2) (dsDNA)
DNA 1: ATATCGATGTATATATCTGACACGTGCCTGGAGACTAGGGAGTAATCCCCTTGGCGGTTAAAACGCGGGGGACAGCGCGTACGTGCGTTTAAGCGGTGCTAGAGCTGTCTACGACCAATTGAGCGGCCTCGGCACCGGGATTCTGATAT
DNA 2: ATATCAGAATCCCGGTGCCGAGGCCGCTCAATTGGTCGTAGACAGCTCTAGCACCGCTTAAACGCACGTACGCGCTGTCCCCCGCGTTTTAACCGCCAAGGGGATTACTCCCTAGTCTCCAGGCACGTGTCAGATATATACATCGATAT
For B6, in data set [3], the Kd was under 5 nM.
Turning to ATAGGGTCCATCAGAATTCGGATGAACTCGGTGTG (ssDNA) [Random 35mer ssDNA], in data set [5], the equilibrium dissociation constant (Kd) worked out at 51 ± 9 nM.

B7: High AT 35mer dsDNA (dsDNA)
DNA 1: CATCATCAAAGACCAAAAGTAGATAAAACCACAAA
DNA 2: TTTGTGGTTTTATCTACTTTTGGTCTTTGATGATG
Take B7: in data set [3], the equilibrium dissociation constant (Kd) was under 5 nM.

B8: Random 45mer dsDNA (dsDNA)
DNA 1: GCCGCGTATAGGGTCCATCAGAATTCGGATGAACTCGGTGTGAAG
DNA 2: CTTCACACCGAGTTCATCCGAATTCTGATGGACCCTATACGCGGC
For B8, the Kd in data set [5] (blunt) was 11 ± 3 nM.
For the molecule AUAGGGUCCAUCAGAAUUCGGAUGAACUCGGUGUG (ssRNA) [Random 35mer ssRNA], the Kd in data set [5] amounted to 49 ± 6 nM.

The values are drawn from PMC11879086, “Identification and characterization of a human MORC2 DNA binding region that is required for gene silencing” (Nucleic Acids Research, 2024).
